Source: US20140178390A1

Key:
Human CXCR7 (human) [1] = molecular target: Human CXCR7 (human) (UniProt P25106); experiment: cell-based or functional assay
Human CXCR7 (human) [2] = molecular target: Human CXCR7 (human) (UniProt P25106); experiment: [125I]-CXCL12 displacement on NIH3T3-hCXCR7 cells
Human CXCR7 (human) [3] = molecular target: Human CXCR7 (human) (UniProt P25106); experiment: [125I]-CXCL12 displacement on NIH3T3-hCXCR7 cells, relative to cold SDF-1
Human CXCR7 (human) [4] = molecular target: Human CXCR7 (human) (UniProt P25106); experiment: competition FACS with 4 nM biotinylated SDF-1 on HEK-hCXCR7 cells

Sequence of Human CXCR7 (human) (P25106 whole entry): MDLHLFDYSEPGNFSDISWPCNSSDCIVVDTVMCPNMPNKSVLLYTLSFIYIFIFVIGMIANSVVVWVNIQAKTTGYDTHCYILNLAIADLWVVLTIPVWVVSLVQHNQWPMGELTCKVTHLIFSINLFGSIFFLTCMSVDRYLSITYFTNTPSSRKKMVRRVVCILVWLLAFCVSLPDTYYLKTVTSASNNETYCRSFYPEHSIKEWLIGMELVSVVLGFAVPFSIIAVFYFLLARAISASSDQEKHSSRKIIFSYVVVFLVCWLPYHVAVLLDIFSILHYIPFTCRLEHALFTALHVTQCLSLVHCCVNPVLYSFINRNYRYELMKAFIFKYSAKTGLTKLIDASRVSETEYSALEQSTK

β-arrestin recruitment in absence of HSA [IC50] (Human CXCR7 (human) [1]): 12.9 | β-arrestin recruitment in presence of HSA [IC50] (Human CXCR7 (human) [1]): 34.8 | Ki (Human CXCR7 (human) [2]): 5.9 nM | Average SDF-1 displacement (%) (Human CXCR7 (human) [3]): 73% | competition relative to unlabelled SDF-1 (%) (Human CXCR7 (human) [4]): > 95%
Substance: Mab 8F11 (Biolegend) (antibody)
